Assay results as given in patent US20070161569A1 (GENERAL HOSPITAL, published 2007).
Several values for one entry are separate records, joined by “and”; a condition that tells them apart may be missing. Identical values can stand only once. Non-standard residues stand in square brackets, D forms with d. No end group written: not given here. hArg = N=C(N)NCCCC[C@H](N)C(=O)O; Ac5c = NC1(C(=O)O)CCCC1; Deg = CCC(N)(CC)C(=O)O; Ac3c = NC1(C(=O)O)CC1; Aib = CC(C)(N)C(=O)O

Key:
[1] = target: T1, recombinant P1R chimera expressed in HKRK-B28 cells (opossum P1R from the N-terminus to the mid region of … (opossum; rat, UniProt P25107 27-288; P25961 295-591, limits assumed); experiment: cell-based or functional assay
T1 sequence (P25107 other isoform, or with tags, fused parts or gaps limits assumed): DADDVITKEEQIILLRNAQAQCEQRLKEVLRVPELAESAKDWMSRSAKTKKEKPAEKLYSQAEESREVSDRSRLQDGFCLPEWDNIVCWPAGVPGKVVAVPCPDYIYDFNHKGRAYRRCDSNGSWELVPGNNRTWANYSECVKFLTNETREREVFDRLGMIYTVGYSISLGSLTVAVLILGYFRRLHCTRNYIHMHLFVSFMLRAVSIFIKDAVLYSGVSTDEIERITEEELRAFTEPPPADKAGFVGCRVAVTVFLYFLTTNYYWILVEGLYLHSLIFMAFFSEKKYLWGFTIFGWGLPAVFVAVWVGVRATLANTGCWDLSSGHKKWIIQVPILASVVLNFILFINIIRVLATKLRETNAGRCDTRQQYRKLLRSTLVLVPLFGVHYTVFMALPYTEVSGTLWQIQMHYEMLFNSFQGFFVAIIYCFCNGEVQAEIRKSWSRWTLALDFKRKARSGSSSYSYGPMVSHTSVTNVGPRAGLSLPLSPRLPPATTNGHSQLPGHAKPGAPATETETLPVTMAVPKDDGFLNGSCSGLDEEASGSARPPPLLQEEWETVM

[2] = target: T1, recombinant P1R chimera expressed in …; experiment: competition binding on B28 cells against 125I-PTH(1-21) tracer (SEQ ID NO 36)
Protocol: (§1) Competition Binding. Binding reactions were performed with HKRK-B28 cells or in COS-7 cells in 24-well plates. The cells were rinsed with 0.5 mL of binding buffer, and then treated successively with 100 μL binding buffer, 100 μL of binding buffer containing various amounts of unlabeled competitor ligand, and 100 μL of binding buffer containing ca. 100,000 cpm of ¹²⁵I-[Aib^{1,3},Nle⁸,Gln¹⁰,Har¹¹,Ala¹²,Trp¹⁴,Arg¹⁹,Tyr²¹]rPTH(1-21) (SEQ. ID. NO. 36) (ca. 26 fmol; final volume=300 μL). Incubations were 4 to 6 h at 4° C., at which time near equilibrium conditions were attained. Cells were then placed on ice, the binding medium was removed, and the monolayer was rinsed three times with 0.5 mL of cold binding buffer. The cells were subsequently lysed with 0.5 mL 5N NaOH and counted for radioactivity. For each tracer and in each experiment, the non-specific binding was determined as the radioactivity that bound in the presence of the same unlabeled peptide at a concentration of 1 μM, and was ˜1% of total radioactivity added for each tracer. The maximum specific binding (B₀) was the total radioactivity bound in the absence of competing ligand, corrected for nonspecific binding, and for each tracer, ranged from 8% to 20% of the total radioactivity added. Nonlinear regression was used to calculate binding IC₅₀ values (see below). Scatchard transformations of homologous competition binding data derived from studies with 26 fmol of ¹²⁵I-[Aib^{1,3},Nle⁸,Gln¹⁰,Har¹¹,Ala¹²,Trp¹⁴, Arg¹⁹,Tyr²¹]rPTH(1-21) (SEQ. ID. NO. 36) were employed for estimations of apparent equilibrium dissociation constant (kDapps) and total number of ligand binding sites (Bₘₐₓ), assuming a single class of binding sites and equal affinities of the iodinated and non iodinated ligand.

[3] = target: T2, P1R-delNt, a recombinant human PTH-1 receptor construct in which most of the amino-terminal extracellular … (human, UniProt Q03431 23-593, limits assumed); experiment: cell-based or functional assay
T2 sequence (looked up): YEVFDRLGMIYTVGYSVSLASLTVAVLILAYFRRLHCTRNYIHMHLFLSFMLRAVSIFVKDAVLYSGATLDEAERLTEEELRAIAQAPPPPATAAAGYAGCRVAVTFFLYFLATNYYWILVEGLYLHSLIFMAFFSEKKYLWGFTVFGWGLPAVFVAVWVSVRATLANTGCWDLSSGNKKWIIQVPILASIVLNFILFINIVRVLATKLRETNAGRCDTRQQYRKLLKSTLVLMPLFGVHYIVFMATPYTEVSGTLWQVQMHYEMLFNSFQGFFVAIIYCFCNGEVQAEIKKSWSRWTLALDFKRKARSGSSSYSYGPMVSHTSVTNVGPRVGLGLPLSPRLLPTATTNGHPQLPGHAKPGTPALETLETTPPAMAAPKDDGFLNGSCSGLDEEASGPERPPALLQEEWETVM

[4] = target: T1, recombinant P1R chimera expressed in …; experiment: competition binding on HKRK-B28 cells against 125I-PTH(1-21) tracer (SEQ ID NO 36)
Protocol: as §1, with “Incubations” for “Competition Binding. Binding reactions were performed with HKRK-B28 cells or in COS-7 cells in 24-well plates. The cells were rinsed with 0.5 mL of binding buffer, and then treated successively with 100 μL binding buffer, 100 μL of binding buffer containing various amounts of unlabeled competitor ligand, and 100 μL of binding buffer containing ca. 100,000 cpm of ¹²⁵I-[Aib^{1,3},Nle⁸,Gln¹⁰,Har¹¹,Ala¹²,Trp¹⁴,Arg¹⁹,Tyr²¹]rPTH(1-21) (SEQ. ID. NO. 36) (ca. 26 fmol; final volume=300 μL). Incubations”, “ligand. […]” for “ligand.”

B1: [Ac5c^1,M]PTH(1-14) (peptide)
peptide: [Ac5c]VAEIQLMHQ[hArg]AKW-NH2
modifications: N-terminus assumed
SMILES: CC[C@H](C)[C@H](NC(=O)[C@H](CCC(=O)O)NC(=O)[C@H](C)NC(=O)[C@@H](NC(=O)C1(N)CCCC1)C(C)C)C(=O)N[C@@H](CCC(N)=O)C(=O)N[C@@H](CC(C)C)C(=O)N[C@@H](CCSC)C(=O)N[C@@H](Cc1c[nH]cn1)C(=O)N[C@@H](CCC(N)=O)C(=O)N[C@@H](CCCCNC(=N)N)C(=O)N[C@@H](C)C(=O)N[C@@H](CCCCN)C(=O)N[C@@H](Cc1c[nH]c2ccccc12)C(N)=O
notes: also called Ac5c (position 1) analog; Ac5c^1 modification
cAMP accumulation, fold more potent than the parent analog [1]: 61 fold
cAMP potency, fold improvement relative to parent [M]PTH(1-14) [1]: ~35 fold
fold improved affinity relative to the parent [M]PTH(1-14) [2]: 50 fold

B2: [Ac5c^1,Aib^3]PTH(1-9)NH2 (peptide)
peptide: [Ac5c]V[Aib]EIQLMH-NH2
modifications: N-terminus assumed
SMILES: CC[C@H](C)[C@H](NC(=O)[C@H](CCC(=O)O)NC(=O)C(C)(C)NC(=O)[C@@H](NC(=O)C1(N)CCCC1)C(C)C)C(=O)N[C@@H](CCC(N)=O)C(=O)N[C@@H](CC(C)C)C(=O)N[C@@H](CCSC)C(=O)N[C@@H](Cc1c[nH]cn1)C(N)=O
increase in cAMP levels relative to basal, peptide at 1×10^-4M [1]: 6 fold

B3: [Ac5c^1,Aib^3,Gln^10]PTH(1-10)NH2 (peptide)
peptide: [Ac5c]V[Aib]EIQLMHQ-NH2
modifications: N-terminus assumed
SMILES: CC[C@H](C)[C@H](NC(=O)[C@H](CCC(=O)O)NC(=O)C(C)(C)NC(=O)[C@@H](NC(=O)C1(N)CCCC1)C(C)C)C(=O)N[C@@H](CCC(N)=O)C(=O)N[C@@H](CC(C)C)C(=O)N[C@@H](CCSC)C(=O)N[C@@H](Cc1c[nH]cn1)C(=O)N[C@@H](CCC(N)=O)C(N)=O
cAMP EC50 in LdelNt-2 cells [3]: ~40000 nM and 37000 nM
cAMP EC50 in HKRK-B28 cells [1]: ~3000 nM
increase in cAMP levels relative to basal, peptide at 10 µM, HKRK-B28 cells [1]: 33 fold

B4: [M]PTH(1-14) analog in which alanine-3 is substituted with 1-aminocyclopentane-1-carboxylic acid (Ac5c) (peptide)
peptide: AV[Ac5c]EIQLMHQ[hArg]AKW-NH2
modifications: N-terminus assumed
SMILES: CC[C@H](C)[C@H](NC(=O)[C@H](CCC(=O)O)NC(=O)C1(NC(=O)[C@@H](NC(=O)[C@H](C)N)C(C)C)CCCC1)C(=O)N[C@@H](CCC(N)=O)C(=O)N[C@@H](CC(C)C)C(=O)N[C@@H](CCSC)C(=O)N[C@@H](Cc1c[nH]cn1)C(=O)N[C@@H](CCC(N)=O)C(=O)N[C@@H](CCCCNC(=N)N)C(=O)N[C@@H](C)C(=O)N[C@@H](CCCCN)C(=O)N[C@@H](Cc1c[nH]c2ccccc12)C(N)=O
notes: also called Ac5c^3-containing analog; Ac5c-3
cAMP-stimulating potency, fold increase over the parent analog [1]: < 2 fold
IC50 [2]: ~3000 nM

B5: [Ac3c^1,M]PTH(1-14) (peptide)
peptide: [Ac3c]VAEIQLMHQ[hArg]AKW-NH2
modifications: N-terminus assumed
SMILES: CC[C@H](C)[C@H](NC(=O)[C@H](CCC(=O)O)NC(=O)[C@H](C)NC(=O)[C@@H](NC(=O)C1(N)CC1)C(C)C)C(=O)N[C@@H](CCC(N)=O)C(=O)N[C@@H](CC(C)C)C(=O)N[C@@H](CCSC)C(=O)N[C@@H](Cc1c[nH]cn1)C(=O)N[C@@H](CCC(N)=O)C(=O)N[C@@H](CCCCNC(=N)N)C(=O)N[C@@H](C)C(=O)N[C@@H](CCCCN)C(=O)N[C@@H](Cc1c[nH]c2ccccc12)C(N)=O
cAMP accumulation, fold more potent than the parent analog [1]: ~2 fold

B6: [Ala^1,3,12,Gln^10,Har^11,Trp^14]PTH(1-14)NH2 (peptide)
peptide: AVAEIQLMHQ[hArg]AKW-NH2
modifications: N-terminus assumed
SMILES: CC[C@H](C)[C@H](NC(=O)[C@H](CCC(=O)O)NC(=O)[C@H](C)NC(=O)[C@@H](NC(=O)[C@H](C)N)C(C)C)C(=O)N[C@@H](CCC(N)=O)C(=O)N[C@@H](CC(C)C)C(=O)N[C@@H](CCSC)C(=O)N[C@@H](Cc1c[nH]cn1)C(=O)N[C@@H](CCC(N)=O)C(=O)N[C@@H](CCCCNC(=N)N)C(=O)N[C@@H](C)C(=O)N[C@@H](CCCCN)C(=O)N[C@@H](Cc1c[nH]c2ccccc12)C(N)=O
notes: also called [M]PTH(1-14); parent
IC50 [4]: 27000 nM
cAMP accumulation potency (EC50) in HKRK-B28 cells [1]: 220 nM
cAMP potency (EC50) [1]: 200 nM
IC50 [2]: ~3000 nM

B7: [Deg^1,M]PTH(1-14) (peptide)
peptide: [Deg]VAEIQLMHQ[hArg]AKW-NH2
modifications: N-terminus assumed
SMILES: CC[C@H](C)[C@H](NC(=O)[C@H](CCC(=O)O)NC(=O)[C@H](C)NC(=O)[C@@H](NC(=O)C(N)(CC)CC)C(C)C)C(=O)N[C@@H](CCC(N)=O)C(=O)N[C@@H](CC(C)C)C(=O)N[C@@H](CCSC)C(=O)N[C@@H](Cc1c[nH]cn1)C(=O)N[C@@H](CCC(N)=O)C(=O)N[C@@H](CCCCNC(=N)N)C(=O)N[C@@H](C)C(=O)N[C@@H](CCCCN)C(=O)N[C@@H](Cc1c[nH]c2ccccc12)C(N)=O
cAMP accumulation, fold more potent than the parent analog [1]: 11 fold

B8: [Aib^1,3,Gln^10,Har^11,Ala^12,Trp^14]PTH(1-14)NH2 (peptide)
peptide: [Aib]V[Aib]EIQLMHQ[hArg]AKW-NH2
modifications: N-terminus assumed
SMILES: CC[C@H](C)[C@H](NC(=O)[C@H](CCC(=O)O)NC(=O)C(C)(C)NC(=O)[C@@H](NC(=O)C(C)(C)N)C(C)C)C(=O)N[C@@H](CCC(N)=O)C(=O)N[C@@H](CC(C)C)C(=O)N[C@@H](CCSC)C(=O)N[C@@H](Cc1c[nH]cn1)C(=O)N[C@@H](CCC(N)=O)C(=O)N[C@@H](CCCCNC(=N)N)C(=O)N[C@@H](C)C(=O)N[C@@H](CCCCN)C(=O)N[C@@H](Cc1c[nH]c2ccccc12)C(N)=O
cAMP EC50 in LdelNt-2 cells [3]: 6.4 nM

B9: [Aib^1,3,Gln^10]PTH(1-10)NH2 (peptide)
peptide: [Aib]V[Aib]EIQLMHQ-NH2
modifications: N-terminus assumed
SMILES: CC[C@H](C)[C@H](NC(=O)[C@H](CCC(=O)O)NC(=O)C(C)(C)NC(=O)[C@@H](NC(=O)C(C)(C)N)C(C)C)C(=O)N[C@@H](CCC(N)=O)C(=O)N[C@@H](CC(C)C)C(=O)N[C@@H](CCSC)C(=O)N[C@@H](Cc1c[nH]cn1)C(=O)N[C@@H](CCC(N)=O)C(N)=O
increase in cAMP accumulation, peptide at 1×10^-4M [1]: 2 fold

B10: [M]PTH(1-14) analog in which alanine-3 is substituted with α,α-diethylglycine (Deg) (peptide)
peptide: H-AV[Deg]EIQLMHQ[hArg]AKW-NH2
SMILES: CC[C@H](C)[C@H](NC(=O)[C@H](CCC(=O)O)NC(=O)C(CC)(CC)NC(=O)[C@@H](NC(=O)[C@H](C)N)C(C)C)C(=O)N[C@@H](CCC(N)=O)C(=O)N[C@@H](CC(C)C)C(=O)N[C@@H](CCSC)C(=O)N[C@@H](Cc1c[nH]cn1)C(=O)N[C@@H](CCC(N)=O)C(=O)N[C@@H](CCCCNC(=N)N)C(=O)N[C@@H](C)C(=O)N[C@@H](CCCCN)C(=O)N[C@@H](Cc1c[nH]c2ccccc12)C(N)=O
notes: also called Deg^3-containing analog; Deg-3
cAMP-stimulating potency, fold diminished against the parent analog [1]: ~10 fold
signaling potency, fold diminished relative to parent [M]PTH(1-14) [1]: ~40 fold
IC50 [2]: ~3000 nM
fold improved affinity relative to the parent [M]PTH(1-14) [2]: ~1.5 fold
